Measured values as given in PMC5875921.

What was measured:
[1] = target: HNH domain of NmeCas9 (Neisseria meningitidis) (UniProt C9X1G5); assay: ITC
[2] = system: NmeCas9 (Neisseria meningitidis); assay: fluorescence polarization; settings: not given in the material (Methods absent)

| Substance | Kd [1] | Kd [2] |
| --- | --- | --- |
| AcrIIC1 from Neisseria meningitidis (natural protein) | 0.0063 µM |  |
| NmeCas9 sgRNA + target DNA |  | 0.071 µM |
